Laboratory results: publication PMC3364985, “Staphylococcus aureus Surface Protein SdrE Binds Complement Regulator Factor H as an Immune Evasion Tactic” (PLoS ONE, 2012)

B1: complement regulatory protein factor H (natural protein)
chain: EDCNELPPRRNTEILTGSWSDQTYPEGTQAIYKCRPGYRSLGNVIMVCRKGEWVALNPLRKCQKRPCGHPGDTPFGTFTLTGGNVFEYGVKAVYTCNEGYQLLGEINYRECDTDGWTNDIPICEVVKCLPVTAPENGKIVSSAMEPDREYHFGQAVRFVCNSGYKIEGDEEMHCSDDGFWSKEKPKCVEISCKSPDVINGSPISQKIIYKENERFQYKCNMGYEYSERGDAVCTESGWRPLPSCEEKSCDNPYIPNGDYSPLRIKHRTGDEITYQCRNGFYPATRGNTAKCTSTGWIPAPRCTLKPCDYPDIKHGGLYHENMRRPYFPVAVGKYYSYYCDEHFETPSGSYWDHIHCTQDGWSPAVPCLRKCYFPYLENGYNQNYGRKFVQGKSIDVACHPGYALPKAQTTVTCMENGWSPTPRCIRVKTCSKSSIDIENGFISESQYTYALKEKAKYQCKLGYVTADGETSGSITCGKDGWSAQPTCIKSCDIPVFMNARTKNDFTWFKLNDTLDYECHDGYESNTGSTTGSIVCGYNGWSDLPICYERECELPKIDVHLVPDRKKDQYKVGEVLKFSCKPGFTIVGPNSVQCYHFGLSPDLPICKEQVQSCGPPPELLNGNVKEKTKEEYGHSEVVEYYCNPRFLMKGPNKIQCVDGEWTTLPVCIVEESTCGDIPELEHGWAQLSSPPYYYGDSVEFNCSESFTMIGHRSITCIHGVWTQLPQCVAIDKLKKCKSSNLIILEEHLKNKKEFDHNSNIRYRCRGKEGWIHTVCINGRWDPEVNCSMAQIQLCPPPPQIPNSHNMTTTLNYRDGEKVSVLCQENYLIQEGEEITCKDGRWQSIPLCVEKIPCSQPPQIEHGTINSSRSSQESYAHGTKLSYTCEGGFRISEENETTCYMGKWSSPPQCEGLPCKSPPEISHGVVAHMSDSYQYGEEVTYKCFEGFGIDGPAIAKCLGEKWSHPPSCIKTDCLSLPSFENAIPMGEKKDVYKAGEQVTYTCATYYKMDGASNVTCINSRWTGRPTCRDTSCVNPPTVQNAYIVSRQMSKYPSGERVRYQCRSPYEMFGDEEVMCLNGNWTEPPQCKDSTGKCGPPPPIDNGDITSFPLSVYAPASSVEYQCQNLYQLEGNKRITCRNGQWSEPPKCLHPCVISREIMENYNIALRWTAKQKLYSRTGESVEFVCKRGYRLSSRSHTLRTTCWDGKLEYPTCAKR
notes: complement factor H, human, 155 kDa plasma protein; the assay's purified field tells the two apart; also called fH; purified fH; source: bought: CompTech (purified fH)

Experiments:
[1] = biological target: recombinant SdrE (6×His-tagged A region of serine-aspartate repeat-containing protein E) (S. aureus); assay: far-Western, overlay or dot blot; 5 µg of rSdrE, rClfA and BSA adsorbed to a PVDF membrane, blocked with 3% BSA/TBST, overlaid with purified fH (20 µg fH/10 ml block buffer) overnight; anti-fH, ECL, optical densitometry against a purified fH dilution series
Sequence of recombinant SdrE (6×His-tagged A region of serine-aspartate repeat-containing protein E) (S. aureus) (O86489 53-606 limits assumed): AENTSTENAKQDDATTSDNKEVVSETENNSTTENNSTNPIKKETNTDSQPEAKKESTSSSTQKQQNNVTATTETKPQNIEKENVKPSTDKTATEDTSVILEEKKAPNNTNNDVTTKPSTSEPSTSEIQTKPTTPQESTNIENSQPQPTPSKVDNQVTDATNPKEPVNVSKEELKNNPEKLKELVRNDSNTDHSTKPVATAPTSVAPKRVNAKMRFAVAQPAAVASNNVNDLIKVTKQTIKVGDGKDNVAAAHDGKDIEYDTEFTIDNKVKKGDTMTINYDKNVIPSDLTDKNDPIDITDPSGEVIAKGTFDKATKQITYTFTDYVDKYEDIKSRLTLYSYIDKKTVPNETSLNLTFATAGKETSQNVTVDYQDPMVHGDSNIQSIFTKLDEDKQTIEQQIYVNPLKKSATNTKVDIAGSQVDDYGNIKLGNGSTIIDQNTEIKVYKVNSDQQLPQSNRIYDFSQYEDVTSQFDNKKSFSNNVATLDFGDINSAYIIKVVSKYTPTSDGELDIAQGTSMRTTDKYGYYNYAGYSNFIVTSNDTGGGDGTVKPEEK

[2] = biological target: T1, SdrE expressed on the surface of Lactococcus lactis (pKS80-SdrE) (S. aureus, UniProt O86489 53-1132); assay: far-Western, overlay or dot blot; whole L. lactis (pKS80-SdrE or pKS80) immobilised on a PVDF membrane, overlaid with 5% HI-serum in 0.05% gelatin/PBST for 1 hr; anti-fH, optical densitometry against a serum dilution series; settings: partners not purified
T1 construct: Compared throughout with L. lactis carrying the empty vector pKS80; also called L. lactis (pKS80-SdrE); SdrE-expressing L. lactis; source: L. lactis, constitutively expressed from pKS80, on the bacterial surface
T1 sequence (O86489 53-1132): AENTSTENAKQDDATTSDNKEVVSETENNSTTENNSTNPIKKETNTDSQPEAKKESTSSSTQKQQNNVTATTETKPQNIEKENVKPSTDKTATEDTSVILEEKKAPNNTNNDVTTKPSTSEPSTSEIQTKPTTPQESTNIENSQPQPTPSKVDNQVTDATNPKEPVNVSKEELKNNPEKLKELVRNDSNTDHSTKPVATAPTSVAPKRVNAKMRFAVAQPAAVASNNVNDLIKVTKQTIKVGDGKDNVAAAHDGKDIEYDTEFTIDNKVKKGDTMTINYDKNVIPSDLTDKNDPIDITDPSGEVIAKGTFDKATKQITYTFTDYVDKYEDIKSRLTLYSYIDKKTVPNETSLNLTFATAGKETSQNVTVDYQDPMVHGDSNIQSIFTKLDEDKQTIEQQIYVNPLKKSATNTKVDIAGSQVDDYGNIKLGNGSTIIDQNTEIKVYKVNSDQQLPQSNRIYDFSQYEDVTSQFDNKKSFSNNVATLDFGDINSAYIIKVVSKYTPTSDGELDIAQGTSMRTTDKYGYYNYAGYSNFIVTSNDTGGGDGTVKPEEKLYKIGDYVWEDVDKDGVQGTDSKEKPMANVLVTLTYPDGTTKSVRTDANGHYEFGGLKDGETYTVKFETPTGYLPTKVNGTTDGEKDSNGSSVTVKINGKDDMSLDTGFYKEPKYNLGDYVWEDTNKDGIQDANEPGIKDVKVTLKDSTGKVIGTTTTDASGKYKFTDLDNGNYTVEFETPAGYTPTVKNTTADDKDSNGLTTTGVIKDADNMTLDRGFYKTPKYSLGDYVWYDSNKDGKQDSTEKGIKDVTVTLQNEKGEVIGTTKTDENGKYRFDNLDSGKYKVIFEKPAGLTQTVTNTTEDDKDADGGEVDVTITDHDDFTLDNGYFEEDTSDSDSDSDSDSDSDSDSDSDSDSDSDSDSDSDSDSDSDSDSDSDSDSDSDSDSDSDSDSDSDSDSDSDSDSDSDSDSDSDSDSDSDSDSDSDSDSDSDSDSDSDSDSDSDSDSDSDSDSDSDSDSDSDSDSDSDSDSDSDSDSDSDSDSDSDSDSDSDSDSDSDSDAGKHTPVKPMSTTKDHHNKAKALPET

[3] = biological target: T1, SdrE expressed on the surface of …; assay: binding to whole bacteria in solution, SDS extraction, fH ELISA; L. lactis (OD600 = 4.0) in GVBS^++ with various amounts of HI-serum, 1 hr, 37°C; bound proteins extracted with 2% SDS; fH ELISA with chicken antibodies specific for human fH; settings: partners not purified

| Molecule | amount of fH bound [1] [ng] | fold more serum fH bound than on L. lactis (pKS80) [2] [fold] | fold more serum fH bound than on L. lactis (pKS80) [3] [fold] |
| --- | --- | --- | --- |
| complement regulatory protein factor H (from UniProt P08603 19-1231) (natural protein) | 2.2 | – | – |
| B1 | – | 4 | ≤ 4 |
